Results on four molecules are retold here after paper PMC10577170 (2023).

For assay [1], the target named is T1, CSPG4 (chondroitin sulfate proteoglycan 4) peptide on HLA-C*07:02 (human).
T1 peptide: HIIFPHGSL
Put plainly: cytokine release.

Assay [2] has as its target T2, CSPG4 (chondroitin sulfate proteoglycan 4) peptide on HLA-C*07:02 (human).
T2 peptide: PHIIFPHGSL
The assay can be described thus: cytokine release.

For assay [3], the target named is T3, CSPG4 (chondroitin sulfate proteoglycan 4) peptide on HLA-C*07:01 (human).
T3 peptide: HIIFPHGSL
Put plainly: killing.

B1: 11C/73 TCR (TCR)
alpha TRAV12-2*02 TRAJ45*01 CDR3: CAVNAAGGGADGLTF
beta TRBV28*01 TRBJ2-2*01 CDR3: CASSYDWGGELFF
B1: the binding result in assay [1] is recorded as “no recognition”; in assay [2], “no recognition”; in assay [3], “recognises”.

B2: 11Cα-2Cβ cTCR (TCR)
alpha TRAV12-2*02 TRAJ45*01 CDR3: CAVNAAGGGADGLTF
beta TRBV3-1*01 TRBJ2-1*01 CDR3: CASSQGWTRNEQFF
Turning to B2, the binding result in assay [3] was “no recognition”.

B3: 2Cα-11Cβ cTCR (TCR)
alpha TRAV35*02 TRAJ34*01 CDR3: CAGSYNTDKLIF
beta TRBV28*01 TRBJ2-2*01 CDR3: CASSYDWGGELFF
With B3, the binding result in assay [3] is “recognises”.

B4: 2C/165 TCR (TCR)
alpha TRAV35*02 TRAJ34*01 CDR3: CAGSYNTDKLIF
beta TRBV3-1*01 TRBJ2-1*01 CDR3: CASSQGWTRNEQFF
Take B4: the results for the binding result in assay [1], in assay [2] and in assay [3] were “no recognition”, “no recognition” and “recognises”, respectively.
